The results in this text go back to the DeepSol protein solubility set.

This series can be described thus: soluble on expression in E. coli; label from the status in PepcDB or PDB records.
Take “MTCDDLKSGEKRLIPKPTCRFKDAFQQYPDLLKSIIRVGILKPTPIQSQAWPIILQGIDLIVVAQTGTGKTLSYLMPGFIHLDSQPISREQRNGPGMLVLTPTRELALHVEAECSKYSYKGLKSICIYGGRNRNGQIEDISKGVDIIIATPGRLNDLQMNNSVNLRSITYLVIDEADKMLDMEFEPQIRKILLDVRPDRQTVMTSATWPDTVRQLALSYLKDPMIVYV”: the “soluble on expression in E. coli” value was “soluble”. The same measure for “TSTKLNTTTSAAYLSTGIKALDSMLGSKGYQTGSQIIISGRSGTAKTLFATSFAQSAVRQGRKVLFISFEESPNDLIRHVKSINIDLMKYITKKKLHINSRRSVEMGLEDHIISIIELTEEKQFDVLILDPISALLDLGNTMEVKRLFIRFISYMKSLNKTLLFTELIPDYSKELTILGLSSLTETWIRLSNVESNGEFNRLIHIAKARGIKTSNQIKEFYVTDKGINIEAPYLGDNQMMFGSQKSA”: “not soluble”; for “GPGSMRDHAPTSAASATALVNPSLPNSSVVDASLTGAQKKSGASSTRQRPPTPLPSTTPPRSEQHYRMTETEAWLSASFGNLATMGDSNGNSGGARRHGGPSPSAAFPLTFQEVPAAVVNHLLSRITLIQSEEQRHRDAVTVEGREVSGSPEMADGAPLPTRNECRAIGEFMLANDTLLGRRPREGIDASACAPSALRLVSMPLFGDHRLATYSPQGAAANRRRRRRSKNRRAAGGGGDDVGELPCLATGNAGLAEPQEARGNGAGATPSTTSHPYSPRTFFVATQSHDVRRRLAAVTPLLRLTTNPDALWIEQRGTAYHYGEEGAEARRPHIDMKGLGNCSSFSVAAAASSRGGRGSSEPGPPRSASFSHTPSFPHAATATTTVIAAAPQLSRADVAFMKHLGTAAEVPLPAKPSHHPHQQEQQQLQLRASPASDTGVSNRAPVDRKRRRQKGQNPLSMKKKQRREVFRAH”: “not soluble”; for “MTDQQRRVVFMATSLLLDYPDDRWEDIIDAVSVQIDDLPKNTRQQFVQFLTAVRVMGRRGMEQHYVECFDQRRRCSLFLSYYAVGDTRQRGAAILAFQESLETLGFFLEREELPDHLCVVLEVAAKAEGLAHHVATDMLAAHRDGIEVLRVALEHSDSPYSRLVAAVCSALPDIDEETRKNFVDLIRSGPPAELIGIESPLPFPTATNV”: “not soluble”. The same measure for “MALSKIDTEIEQVDQEKYLRQATSYYQPLEKPLKYGPEVNSLSDLVAALHREFESNYVNIEMVNHLMLSYKSNPREWRKYAKFDRYTYTRNLVDAGNGKFNLLILCWGEGHGSSVHDHADSHCFMKMLKGDLREKRYEYPNRSARDNGRSHHPDGEIDSRELVEIGETPIAVNDVAYINDNLGLHRVENPSHSDTSVSLHLYCPPFDTCSVFQDNLKKTTAKVTFWSKYGVRTKQNEQLEHHHHHH”: “not soluble”; for “MFQTFEGDLKWHHHNITYWIQNYSEDLPRAVIDDAFARAFALWSAVTPLTFTRVYSRDADIVIQFGVAEHGDGYPFDGKDGLLAHAFPPGPGIQGDAHFDDDELWSLGKGQGYSLFLVAAHEFGHALGLDHSSVPEALMYPMYRFTEGPPLHKDDVNGIRHLY”: “soluble”; for “MKKVSVLIVAKNEANHIQECIESCRFDKEVIVIDDYSTDNTAEIAEGLGAKVFRRHLNGDFGAQKTFAIEQAGGEWVFLIDADERCTPELSDEISKIVQTGDYAAYFVERRNLFPNHPATHGAMRPDSVCRLMPKKDSSVQGKVHETVQTPYPKRRLKHFMYHYTYDNWEQYFNKFNKYTSISAEKYREQGKPVRFVRDIILRPIWGFFKIYILNKGFLDGKMGWIMSVNHSYYTMIKYVKLYYLYKSGGKF”: “not soluble”. The same measure for “MATWTVHLEGGPRRVNHASIAVGSRIYSFGGYCSGEVTDAKDPLDVHVLNTENYRWIKMNPGYVYNNRIITKATIESPYSDSDKMFGAVPYQRYGHTVVEYQGKAYVWGGRNDDYGACNLLHEYDPEYNVWKKVEIEGFVPPSRDGHTAVVWNNQMFVFGGYEEDAQRFSQETYVFDFATSTWREMHTKNDPPRWRDFHTASVIDGMMYIFGGRSDESGQVGDEHLFHTIHDQYDDTLMALNLATGAWTRTKVPENTMKPGGRRSHSTWVYDGKMYMFGGYLGTINVHYNELYCFDPKTSMWSVISVRGTYPSARRRHCSVVSNGKVYLFGGTMPLPCHPLSTTNYNGMISPSGLADLSDLHVLDFAPSLKTLAMQSVLNELKVPSKGMFETLQNELAADIRFEMYCQVMPNVVSNGGSPRNDQAG”: “not soluble”; for “MLTRTDGKGSKVLLIAAMDTKGTEARYIESWLAKAGFTTLIMDMGIRGKRPGPVAVTRDEVLRAAGKTWDDIQNVTSEGDAVDIMISGGVKCALALYKADLIQGVISLGGTMGTTLGTGVMRAFPIGFPKVMISTIAAKDTEAFIGNMDIFMLNSVSDLAGLNRITRKVLRNGALAIAGLVREREFHDEFSRPLAVLTTLGTTEATAARMRIHFEAWGYESVTFHTTGTGGQAMERMVNFEPVSAVVDLSLHELIDHHFGGAFDPGPERGRAALQKGIPTVIVPGNIDFLVTGPMAQAQIYFPGRRGHKHNANITCVRTSLEEIQRIAEIMAGYCNESTGPVAVLVPMKGFSCLDHEDGPQPDPEGPRVFAETFARALTRTIHFETVPLHINDEAFSEVIVGALQKIGGLRKIEADRLPSRQPATWSPYSSVHTLDRFSGNQHTTTETTGDALAALEHHHHHH”: “not soluble”. As for “MAHHHHHHMRTSPLWRLRMTSRPLSLERVFVINLDRRPDRWAAIQAVCARAGLPAERTERVPAVEGSRLDVNAVHHCGFVSALGLRRLKEPPEHHIWGMDLNKAALGCALSHIHLWARIAALGKVSNISAEAPAATLPKQCFLVLEDDSTFADSDDNGSDSPAASPSLPFLDQLQRRMNSVPPDWELVYVSGLDTAKQCLHMQVAKGVARVPQYHRTTNAYLVTPQGARRLLATCVPLTFQLDTAMTMNVGYPPGVVGVAGAQTLPHVLDPVCYTLQPPLMQQAAQLDTDIQH”, the “soluble on expression in E. coli” value is “soluble”. With “MSLSSGRTVPTRSHGLGKEGVSTTGASQVEFGDPELTARINDAMVQVEELLHTELSSGEDFLVDIVMHLTRAGGKRFRPMFALLASEFGEKPLSENVIKAAVVVEITHLATLYHDDVMDEASMRRGVPSANARWDNSVAILAGDILLAHASGLMSQLGTDTVAHFAETFGELVTGQMRETVGPRDTDPIEHYTNVIREKTGVLIASAGYLGAMHAGAAPEHIDALKNFGAAVGMIFQIVDDIIDIFSETHESGKTPGTDLREGVFTLPVLYALREDTPVGAELRDILTGPLEDDETVNHVLELLSQSGGRQAALDEVYRYMDIANAELDRLPDSTVKEALRNLATFTVKRVGEGHHHHHH” the entry was “soluble”. With “MSLNEITVSLDVIIKNKNVMVSSLSVAKAFDRQHSHILRSIEDIKRDWDSLIQSKNGLNRNIIPLKSQGNKQVIFTDYFKESEYIAENGRLVKFFEMNRNGFMLLANSFNGKRILPIKLAFIERFDELEHITLEQAKETENRKNLNQAIKESPHFKPFYYSRFSDFLCQLITHNKYKTVKKLREDKGYYGKQFSKIPLKSMLDSEEDLKRLQKLENSIIAWLEIDYSFREIKAFLTKEKAQPLPTKEGHHHHHH” the entry was “not soluble”; with “MSPTLTHLALHVPDLDACIAFYETFCGMRVIHRRPGKGSQIVWMAEPGQEQRFIFVIMPGGQPRNLASDDYSHFGFALSSRAAVDDLARRAEAAGCLVWAPRDEPYPVGYYCGLRDPAGNYVEFSYGQPLGPGSEALPIP”, “not soluble”; with “MFQAQHLTKSFGDLVLFEDLSFSIERGEKVGLIARNGNGKTTLMNILTGIDSPDSGEVIYQNGIRRAYLPQLPQVLPGSTVLETCFGHNDEMTSLIAQWEEASARGDGKRMEELLPEMDALGAWEYEQRAREILTRLHLDDLHCTTDNLSGGELKRIALAGTLIGNPELLFLDEPTNHLDLDVIEWLEGYLSHQQIGLLLVTHDRYFLDRVCNRILELDNKQLYAYKGNYEYYLNKREERLEATERETSRAANLLRREAEWMHRRPQARGTKAKSRIDAFYELKEKAQPRHRDETLHLSEQGRYIGNKIFEAHKVCKAFGDRTILSDFDYIFSRYDKVGIVGPNGVGKTTFLRLLLGEEKPDSGYFDVGETVRFGYYSQKGMQFDENKRVIEAVQDIAEVIRNEKDGTTLSASALLTQFLFPPEKQYTPIHKLSGGEQRRLYLCTVLMKNPNFLILDEPTNDLDILTLNVLENYLSEFKGCVLVVSHDRFFMDKVVNHLFTFEGNGIVKDFPGNYTQYREYKQQEEAERQTVESSPSTRKAESEKPRTDAAERPRKLTFKEKQELERLEAELPKLEKEKAELESRMSSGTMATDELLTAGDRIAALIEEIDSKGMRWLELSDI”, “not soluble”. With “MSEHLTLPTNKPQVTHFSSGPCAKHPGWSVSNLENACLGRSHRSEDGKAKLSEVIERSKQILGLPADYRLGIVPASDTGAVEMALWSLLGQRPLDILAWESFGQEWVKDVVDELKLPDVRLLKAPYGGLPNLDEVDFSHDVVFLWNGTTSGVRVPNGDWIKDDRQGLTICDATSAVFAMDIPWEKIDVLTYSWQKVLGGEAQHGVIVLSPRAVERLQTYEPAWPIPKIFRLSQKGKLIEGIFKGDTINTPSMLCVEDALDALIWAESVGGLPGLISRSEANLAAIAQWVKQSNWADFLAEKPETRSCTSICLKIVDAAFASLSAEDQGKFAKKLAKLLEKQQVAYDIAPYRAAPPGLRIWGGATVETADIEALLPWLDWAYANVKAEFVPVA” the entry was “soluble”.

As for “MGSDKIHHHHHHMSKHALKLIPSSTEHADVPNDCKNCGAYHLCMSLWLKTADSSLLERVVKKKQVFKRGEVLYRMGQPLEYIYVIRGGSVKTCVSTEDGQVQVMGFHAAGELLGLNAISNREHKCEARAMGVTSVCEVSVERFEELAKKDPAIQYEILKIMSAEIHHGQELLLLLGKHNAEERIAIFLLNLSRQFEQRHCSATEFTLCMSRSDIGNYLGIAEETVCRIFARFQDDGLISSEYRNVKLKDIKRLEQIANQRPQRSLRQTNVASLYF”, the “soluble on expression in E. coli” value is “not soluble”. The same measure for “MVYLYKKGVGMNEQSQAKSPEALRAMVAGTLANFQHPTLKHNLTTLKALHHVAWMDDTLHVELVMPFVWHSAFEELKEQCSAELLRITGAKAIDWKLSHNIATLKRVKNQPGINGVKNIIAVSSGKGGVGKSSTAVNLALALAAEGAKVGILDADIYGPSIPTMLGAENQRPTSPDGTHMAPIMSHGLATNSIGYLVTDDNAMVWRGPMASKALMQMLQETLWPDLDYLVLDMPPGTGDIQLTLAQNIPVTGAVVVTTPQDIALIDAKKGIVMFEKVEVPVLGIVENMSVHICSNCGHHEPIFGTGGAEKLAEKYHTQLLGQMPLHISLREDLDKGTPTVISRPESEFTAIYRQLADRVAAQLYWQGEVIPGEISFRAVLEHHHHHH”: “not soluble”. With “AEDAKLRINGATVTSATNKVTNYIPGVTINLKKETTGAEKLTIQDQSDEKAASMITSFVNTYNALTSTMKTYTGKGTILQASAADLEANRALNNVFQHKKDGNTLFDFGISVDKEGVLKVDETAMKKMVAEDPTAVERFFFGIGGIGDELYQSLNKTFGSTGFISDETTSMTNEINKLNLKLTDITSRNDTLLTNITDQYNKWLEMMQAMQSDAMTLDALIDGMNSSNK” the entry was “not soluble”; with “MGSDKIHHHHHHMKKFLCFIMSVGLILSLVGCGKSGKTNIKVPAKSIDGKDSSISLDIMATNKFLYNVIKDISGNRHNVQFMFKNDIDVKQFDYTSDSINNVSKYNIFMYLGADFEPWASDFIGKLDKNSIATVDMSRGTKILNLDDKVQYGNITVEKNSYYWTDLNNYKTMLVNIKNSLEEKDPKSRDLYEKNFAAYIKKVNDCEKEFKGINDKLKGYTFVTNSSNFDYFFNYAGLDSVKVSEDELSKPDTSKELNDKLKDKEKICYIYSDDGSVQSNNAVIQKYKMKTLKFVTYDENSDYICIIKDNIKSMKELIK”, “not soluble”.
